Experiment [1] deals with T1, human AMHRII (anti-Mullerian hormone receptor type 2) (human, UniProt Q16671 18-573).
T1 construct: whole, on cells; also called AMHR2; human AMHR2
T1 sequence (looked up): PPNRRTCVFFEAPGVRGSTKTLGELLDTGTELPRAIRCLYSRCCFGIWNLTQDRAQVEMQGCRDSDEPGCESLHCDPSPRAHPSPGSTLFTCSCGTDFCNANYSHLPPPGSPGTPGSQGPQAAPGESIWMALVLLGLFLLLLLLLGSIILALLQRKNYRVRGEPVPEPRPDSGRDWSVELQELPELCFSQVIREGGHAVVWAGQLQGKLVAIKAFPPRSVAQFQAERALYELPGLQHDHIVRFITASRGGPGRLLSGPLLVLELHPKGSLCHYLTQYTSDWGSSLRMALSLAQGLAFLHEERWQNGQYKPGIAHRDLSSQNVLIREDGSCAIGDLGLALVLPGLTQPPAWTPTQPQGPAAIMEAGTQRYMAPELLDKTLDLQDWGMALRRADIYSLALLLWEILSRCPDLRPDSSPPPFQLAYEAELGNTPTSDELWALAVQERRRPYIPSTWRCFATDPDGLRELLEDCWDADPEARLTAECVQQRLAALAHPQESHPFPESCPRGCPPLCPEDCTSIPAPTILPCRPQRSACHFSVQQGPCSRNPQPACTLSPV
Briefly: FACS on CHO-K1 cells over-expressing human AMHR2. Here is the method: (§1) CHO-K1 cells over-expressed AMHR2 were harvested from flasks. 100 μl of 1×10⁶ cells/ml of cells were incubated with the humanized antibodies in 3-fold serial dilutions starting from 300 nM to 0.001 nM for 30 minutes on ice. After being washed with 200 μl of FACS buffer twice, cells were incubated with secondary antibody for 30 minutes on ice. Cells were washed with 200 μl of FACS buffer twice and analyzed by FACS.

In experiment [2] the target is T1, human AMHRII (anti-Mullerian hormone …). Briefly: FACS on Rko cells over-expressing human AMHR2. Here is the method:
Rko cells over-expressing AMHR2 were harvested from flasks. 100 μl of 1×10⁶ cells/ml of cells were incubated with primary PTM antibodies in 3-fold serial dilutions starting from 300 nM to 0.001 nM for 30 minutes on ice. After being washed with 200 μl of FACS buffer twice, cells were incubated with secondary antibody for 30 minutes on ice. Cells were washed with 200 μl of FACS buffer twice and analyzed by FACS.

The target in the next experiment is T2, rat AMHR2 (rat, UniProt Q62893 18-557).
T2 construct: whole, on cells; also called rat AMHRII
T2 sequence (looked up): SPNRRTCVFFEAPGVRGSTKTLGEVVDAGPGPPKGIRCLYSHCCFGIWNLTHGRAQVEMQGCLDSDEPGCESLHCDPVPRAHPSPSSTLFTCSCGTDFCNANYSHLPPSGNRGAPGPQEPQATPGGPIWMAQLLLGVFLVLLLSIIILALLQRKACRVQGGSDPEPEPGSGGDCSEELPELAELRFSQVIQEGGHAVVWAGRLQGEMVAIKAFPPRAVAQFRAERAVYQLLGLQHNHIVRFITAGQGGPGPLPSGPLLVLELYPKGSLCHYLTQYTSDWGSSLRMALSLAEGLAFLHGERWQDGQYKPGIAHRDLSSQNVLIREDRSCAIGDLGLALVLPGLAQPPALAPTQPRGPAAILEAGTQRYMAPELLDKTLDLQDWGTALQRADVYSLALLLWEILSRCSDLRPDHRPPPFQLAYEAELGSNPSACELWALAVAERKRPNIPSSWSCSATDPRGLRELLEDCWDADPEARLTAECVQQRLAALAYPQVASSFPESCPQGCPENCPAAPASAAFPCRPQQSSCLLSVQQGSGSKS
Briefly: FACS on CHO-K1 cells over-expressing rat AMHR2. Here is the method: (§2) To evaluate these antibodies' cross reactivities to cyno, rat and mouse AMHR2, CHO-K1 cells over-expressing cyno, rat and mouse AMHR2, respectively, were harvested from flasks. 100 μl of 1×10⁶ cells/ml of cells were incubated with primary antibodies in 4-fold serial dilutions starting from 300 nM to 0.018 nM for 30 minutes on ice. After being washed with 200 μl of FACS buffer twice, cells were incubated with secondary antibody for 30 minutes on ice. Cells were washed with 200 μl of FACS buffer twice and analyzed by FACS.

In the next experiment the target is T3, mouse AMHR2 (mouse, UniProt Q8K592 16-568).
T3 construct: whole, on cells; also called mouse AMHRII
T3 sequence (looked up): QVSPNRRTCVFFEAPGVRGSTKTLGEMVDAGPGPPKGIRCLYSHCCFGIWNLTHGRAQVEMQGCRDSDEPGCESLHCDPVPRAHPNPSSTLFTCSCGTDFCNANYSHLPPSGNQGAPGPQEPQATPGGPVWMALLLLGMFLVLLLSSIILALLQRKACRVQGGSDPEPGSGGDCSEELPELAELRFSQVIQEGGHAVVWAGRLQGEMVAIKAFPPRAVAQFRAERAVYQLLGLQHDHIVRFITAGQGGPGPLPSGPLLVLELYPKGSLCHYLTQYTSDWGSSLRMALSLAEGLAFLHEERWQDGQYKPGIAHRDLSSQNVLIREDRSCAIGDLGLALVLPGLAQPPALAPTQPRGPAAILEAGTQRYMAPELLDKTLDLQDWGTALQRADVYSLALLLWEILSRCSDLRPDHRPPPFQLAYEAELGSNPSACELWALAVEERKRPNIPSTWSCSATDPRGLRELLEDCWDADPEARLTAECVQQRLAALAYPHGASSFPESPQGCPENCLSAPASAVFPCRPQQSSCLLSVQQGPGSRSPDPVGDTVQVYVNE
Briefly: FACS on CHO-K1 cells over-expressing mouse AMHR2. Here is the method:
as §2

Experiment [3] concerns the target T1, human AMHRII (anti-Mullerian hormone …). Description: FACS on CHO-K1 cells over-expressing human AMHR2. Here is the method:
as §1
This is another data set of the same source.

Experiment [4] has the same target. Description: cell-based or functional assay.
For experiment [5] the target is unchanged. Description: FACS on Rko cells over-expressing human AMHR2. Here is the method:
Similarly, the binding of these antibodies was tested with Rko cells that over-expressed AMHR2. 100 μl of 1×10⁶ cells/ml of cells were incubated with the antibodies in 3-fold serial dilutions starting from 300 nM to 0.002 nM for 30 minutes on ice. After being washed with 200 μl of FACS buffer twice, cells were incubated with secondary antibody for 30 minutes on ice. Cells were washed with 200 μl of FACS buffer twice and analyzed by FACS.
The source holds these as a separate data set.

For experiment [6] the target is unchanged. Description: FACS on CHO-K1 cells over-expressing human AMHR2. Here is the method:
CHO-K1 cells that over-expressed AMHR2 were harvested from flasks. 100 μl of 1×10⁶ cells/ml of cells were incubated with primary chimeric antibodies (or with positive reference antibody Ref.Ab) in 3-fold serial dilutions starting from 300 nM to 0.002 nM for 30 minutes on ice. After being washed with 200 μl of FACS buffer twice, cells were incubated with secondary antibody for 30 minutes on ice. Cells were washed with 200 μl of FACS buffer twice and analyzed by FACS.
This is another data set of the same source.

The target is the same in experiment [7]. Briefly: FACS on CHO-K1 cells over-expressing human AMHR2. Here is the method:
as §1
This is another data set of the same source.

Experiment [8] shares this target. Briefly: FACS on CHO-K1 cells over-expressing human AMHR2. Here is the method: as §1
The source holds these as a separate data set.

Experiment [9] has the same target. Briefly: FACS on CHO-K1 cells over-expressing human AMHR2. Here is the method:
as §1
The source holds these as a separate data set.

The target is the same in experiment [10]. Description: FACS on CHO-K1 cells over-expressing human AMHR2. Here is the method:
as §1
This is another data set of the same source.

The term EC50 denotes the concentration giving half of the maximal effect. Low readings indicate greater potency, high ones weaker potency.

B1: 108F3D1E9 H1L1 hIgG1 (antibody, V domains shown)
VH: QLQLQESGPGLVKPSETLSLTCTVSGYSITSDFAWNWIRQPPGKGLEWIGYISFSGSTSYNPSLKSRVTISVDTSKNQFSLKLSSVTAADTAVYYCARSRYSWFAYWGQGTLVTVSS
VL: DIQMTQSPSSLSASVGDRVTITCRASESVDTYGNSFMHWYQQKPGKAPKLLIYRASNLESGVPSRFSGSGSGTDFTLTISSLQPEDFATYYCQQSNEDPYTFGGGTKVEIK
notes: Humanized, PTM de-risked VH, human IgG1; also called 108F3D1E9 H1L1 hlgG1
On to B1, for which the EC50 in [1] came out at 0.74 nM; in experiment [2], 0.528 nM. Besides, the “Top (MFI)” value is 65400 MFI in experiment [1] and 16200 MFI in [2]. Also, the binding result with rat AMHR2 and with mouse AMHR2 was “binds” throughout.

B2: 94C4C3 H1L1 hIgG1 (antibody, V domains shown)
VH: QLQLQESGPGLVKPSETLSLTCTVSGYSITSDYAWNWIRQPPGKGLEWIGYISYSGSISYNPSLKSRVTISVDTSKNQFSLKLSSVTAADTAVYYCARSRYSWFDYWGQGTLVTVSS
VL: EIVLTQSPGTLSLSPGERATLSCSASESVDTYGNSFMHWYQQKPGQAPRLLIYRASSLESGIPDRFSGSGSGTDFTLTISRLEPEDFAVYYCQQSNEDPYTFGGGTKVEIK
notes: Humanized, human IgG1; also called 94C4C3 H1L1 hlgG1
As to B2, the EC50 in experiment [1] came to 1.7 nM; in experiment [2], 0.695 nM. In addition, the “Top (MFI)” value in [1] was 53000 MFI; in experiment [2], 18900 MFI. Also, the binding result with rat AMHR2 and with mouse AMHR2 was “binds” in each case.

B3: xi31D9B3 hIgG1 (antibody, V domains shown)
VH: QVKLLQSGAALVKPGASVKMSCKASGYTFTDYWVSWVKQSHGKSLEWIGEIYPKNGVSNFNEKFKGKATLTVDKSTSTAYMELRRLTSEDSAIFYCTRQRDYWGQGVMVTVSS
VL: DVVLTQTPGSLSVTLGDQASISCRSSQSLEYGDGYTYLEWYLQKPGQSPQLLIYGVSNRFSGVPDRFIGSGSGTDFTLKISRVEPEDLGVYYCFQATHDPNTFGAGTKLELK
notes: Murine variable domains in human chimeric format, human IgG1; also called xi31D9B3 hlgG1; 31D9B3 hlgG1
On to B3, for which the EC50 in [3] amounted to 0.881 nM; in [5] it was 0.57 nM; in experiment [6] it was 1.16 nM; in [7] it was 0.88 nM; in experiment [1], 0.881 nM; in [2] it was 0.657 nM. In experiment [8], this molecule showed an EC50 of 0.88 nM. The “Top (MFI)” value in experiment [3] was found to be 26200 MFI; in [5] it was 8360 MFI; in [6], 122000 MFI; in [7] it was 35200 MFI; in [1] it was 26200 MFI; in [2], 18600 MFI. For the same molecule, the “Top (MFI)” value in experiment [8] was 35200 MFI. In addition, the “ADCC reporter bioassay, EC50” value in [4] worked out at 0.27 nM. In [4], the “ADCC reporter bioassay, Top (MFI)” value was found to be 14400 MFI.

B4: xi94C4C3 hIgG1 (antibody, V domains shown)
VH: DVQLQESGPGLVKPSQSLSLTCTVTGYSITSDYAWNWIRQFPGNKLEWMGYISYSGSISYNPSLKSRISITRDTSKNQFFLQLNSVTTEDTATYYCARSRYSWFDYWGQGTLVTVSA
VL: DIVLTQSPTSLAVSLGQRATLSCSASESVDTYGNSFMHWYQQKPGQPPKLLIYRASSLESGIPVRFSGSGSRTDFTLTINPVEAADVATYYCQQSNEDPYTFGGGTKLEIK
notes: Murine variable domains in human chimeric format, human IgG1; also called xi94C4C3 hlgG1; 94C4C3 (chimeric)
Consider B4, for which the “ADCC reporter bioassay, EC50” value in experiment [4] is 0.35 nM. The “ADCC reporter bioassay, Top (MFI)” value in experiment [4] is 13100 MFI. In addition, the 50% effective concentration (EC50) stood at 0.56 nM in [5]; 1.17 nM in [6]; 1.21 nM in [1]; 0.627 nM in experiment [2]; 1.21 nM in experiment [9]. Besides, the “Top (MFI)” value in experiment [5] was found to be 8380 MFI; in experiment [6], 124000 MFI; in experiment [1], 54900 MFI; in [2], 19000 MFI; in experiment [9], 54900 MFI.

B5: xi108F3D1E9 hIgG1 (antibody, V domains shown)
VH: DVQLQESGPGLVKPSQSLSLTCTVTGYSITSDFAWNWIRQFPGNKLEWMGYINFSGSTSYNPSLKSRISITRDTSKNQFFLQLNSVTTEDTATYYCAGSRYSWFAYWGQGTLVTVSA
VL: DIVLTQSPASLAVSLGQRATISCRASESVDTYGNSFMHWYQQKPGQPPKLLIYRASNLESGIPARFSGSGSRTDFTLTINPVEADDVATYYCQQSNEDPYTFGGGTKLEIK
notes: Murine variable domains in human chimeric format, human IgG1; also called xi108F3D1E9 hlgG1; 108F3D1E9 (chimeric)
Regarding B5, the EC50 in experiment [10] was 1.05 nM; in experiment [5], 0.47 nM; in experiment [6], 1.37 nM; in experiment [1], 1.05 nM; in [2] it was 0.756 nM. In addition, the “Top (MFI)” value came out at 74400 MFI in experiment [10]; 8190 MFI in [5]; 124000 MFI in experiment [6]; 74400 MFI in experiment [1]; 18700 MFI in [2]. The “ADCC reporter bioassay, EC50” value in experiment [4] was found to be 0.19 nM. The “ADCC reporter bioassay, Top (MFI)” value in experiment [4] amounted to 13300 MFI.

The values above are taken from patent US20240400701A1 (LANOVA MEDICINES DEVELOPMENT, published 2024).
